{
  "source": "patent US20220142994A1",
  "about": "“Beta-Carboline Compounds And Use Thereof For The Non-Cytotoxic And Immunological Treatment Of Cancer” (AC BIOSCIENCE SA, priority 2019, published 2022)",
  "molecules": {"B1": {"name": "interferon gamma: interferon gamma, known to increase the MHC I density at the cell membrane; positive control (protein, UniProt P01580 23-155, looked up)", "Interferon gamma": "HGTVIESLESLNNYFNSSGIDVEEKSLFLDIWRNWQKDGDMKILQSQIISFYLRLFEVLKDNQAISNNISVIESHLITTFFSNSKAKKDAFMSIAKFEVNNPQVQRQAFNELIRVVHQLLPESSLRKRKRSRC"}},
  "key": {"[1]": {"test_system": "PD-L1 on melanoma B16 cells", "assay": "PD-L1 expression level by flow cytometry", "type": "cell-based, murine", "settings": "5 μM harmine or 50 μg/ml interferon, 24 hours", "description": "Melanoma B16 cells were treated by 5 μM harmine or 50 μg/ml interferon for 24 hours. PD-L1 level was assessed by flow cytometry using the FMI mode.\nThis can be considered as a favourable property because PD-L1 overexpression in tumour cells is constantly associated with poorer overall survival in cancer patients."}, "L929 cells": {"test_system": "L929 cells", "settings": "cited from earlier work"}},
  "data": [
    {"molecule": "B1", "values": [
      {"measurement": "PD-L1 expression at the membrane", "setting": "[1]", "result": "huge effect"},
      {"measurement": "fluorescent intensity (MHC class I and actin staining)", "setting": "L929 cells; IFN-γ pre-treated cells compared to cells only", "result": "more fluorescent intensity"},
      {"measurement": "actin density", "setting": "L929 cells", "result": "significant increase of actin density"}
    ]}
  ]
}
